Experimental data as given in the DeepSol protein solubility set.

assay: soluble on expression in E. coli; label from the status in PepcDB or PDB records

Sequence | soluble on expression in E. coli
MGSDKIHHHHHHMIVVLKPGSTEEDIRKVVKLAESYNLKCHISKGQERTVIGIIGDDRYVVADKFESLDCVESVVRVLKPYKLVSREFHPEDTVIDLGDVKIGNGYFTIIAGPCSVEGREMLMETAHFLSELGVKVLRGGAYKPRTSPYSFQGLGEKGLEYLREAADKYGMYVVTEALGEDDLPKVAEYADIIQIGARNAQNFRLLSKAGSYNKPVLLKRGFMNTIEEFLLSAEYIANSGNTKIILCERGIRTFEKATRNTLDISAVPIIRKESHLPILVDPSHSGGRRDLVIPLSRAAIAVGAHGIIVEVHPEPEKALSDGKQSLDFELFKELVQEMKKLADALGVKVN | soluble
MKTSETTRPTLSSLPVGKRAEEGTPHNLFTVIGLDDSPSPYLSPSVKALIDQGCVFSGGVRHHDIVAPLLPAGAKWIDITVPLDQVFARYAGHPHIIVFASGDPIFFGFANTIRRRLPDAEIRLYPSFNSLQTLAHRLVMPYDDMRTISLTGRPWHGFDRALIERTPKMGILTDREHTPATIASRMLDYGYNDYTMYIGEHLGHPTKELIRRMTLEEAAAETFEYPNCLILTTGDGLQSVNGGILSPRFFGIPDEAFELLDGRARMITKAPIRLLTLSALELNRRTSFWDIGFCTGSVSIEARLQFPHLHVTSFEIRPEGKRLMEINSRRFGTPGITTVIGDFLETDTAIYPCPDAVFIGGHGGRLKEIISRVRHKLLPGARIVFNSVSEESKTHFIEAANESGLCFLGGTRVAINEYNPIEILVASAPDSPYL | not soluble
MSLSTLQAELASAKTEYEAKELEIRNLFSEKNTQERRLQTLVAQVAAKRKELSNALSQSSAETLTSELQSLESQYQACQTLINNISNYLTVKAGLDKKNASELVERAQKNLLNFIYNSIKSELKVLTDEQVELMKDFVVIEKLIRSELSDSVRQSYFLGCVFDELYGQLKGSDFTSHKEKMLKKYDAESSIG | soluble
MGSDKIHHHHHHMKSRFYRPLSLASVSPSYFPEIALYVRNSGNYILYKNHDRQFTEEDRHRLERTNTSFLYVRSGDMDAVTEYLEQNLDTLLARDDIDSNAKGTILYQTAANYVTDVFDEPGKTADIIRCRSLIRHLMKYVAGHEDALKALQAITSQNYYIFTHSVQVAALMMLVHDRLFRLNQDEMIDVGIGSLLHDVGMVFLSGQLLDKPDALAAIEYHKAKQHAQKGYEHLQSAGTLSEVSLTIVRHHHEKYDGSGYPAGLKGDDIPRSAQLAALCDTYCAMTTDRPKHTALPGAEALRIMEDEVGGAFSPDLFYRFADVVKGKGKA | not soluble
MGSDKIHHHHHHMKMKGIESLKEIFKYGAFSLPVANYLLCEGNIPGDCKRILDVLKLAWKGNFKEAIRRADKAVENSRSETAKYFLLANKLAFLKYTGKTDVNLYRYLKRNLPKMSKSIRDTVIVTLINFEASGIKPLRKVRVWKNDYRKSTLSFLYLSLARREADSGRLSEAVHDYIQAYRLSREVPHPTCIVSSLNDLAWDIREKHPKLAHALSQGAVFWLGYYREEPGNLFGALDTLFVVEKDMDSPSIHSTAHIIVSLPVPEDYLSLLKKAKKFVLDYTGSTYPNTSQLRRYVEKVAWKGKTLSSKGISDILKGKTKMIRADTIRKLLTSGVDTGAPFPVWNEWIKMEIERKYRESSEKLKELPFHQRQILFLTTYMALLDREFLSRKEKLKKAYTLLEDIESFADFMAKDHRTMEFVVSMVKAHPFVEGRKEAVKRALARMKRKRLERFVLRYIEMKESDRKLLDRFLRNYGRYDGVRFGIRLKGPEVVREFAKKYSLKVQPLFAAFWCEEDGRVRRRLERVLKHMVLYNLIEIAILFVMVEK | not soluble
MSLDQREILQKFLDEAQSKKITKEEFANEFLKLKRQSTKYKADKTYPTTVAEKPKNIKKNRYKDILPYDYSRVELSLITSDEDSSYINANFIKGVYGPKAYIATQGPLSTTLLDFWRMIWEYSVLIIGMACMEYEMGKKKCERYWAEPVEMQLEFGPFSVSCEAEKRKSDYIIRTLKVKFNSETRTIYQFHYKNWPDHDVPSSIDPILELIWDVRCYQEDDSVPICIHCSAGCGRTGVICAIDYTWMLLKDGIIPENFSVFSLIREMRTQRPSLVQTQEQYELVYNAVLELFKRQMDVIRDKHSGTESQAKHCIPEKNHTLQADSYSPNLPKSTTKAAKMMNQQRTKMEIKESSSFDFRTSEISAKEELVLHPAKSSTSFDFLELNYSFDKNADTTMKWQTKAFPIVGEPLQEGHHHHHH | not soluble
MENQLTKSVEERTFQYQDSLPSLPVPALEESLKKYLESVKPFANEDEYKKTEEIVQKFQEGAGKRLHQKLLERARGKRNWLEEWWLNVAYLDVRIPSQLNVNFVGPCPHFEHYWPAREGTQLERGSMMLWHNLNYWQLLRREKLPVHKSGNTPLDMNQFRMLFSTCKVPGITRDSIMNYFKTESEGHCPTHIAVLCRGRAFVFDVLHEGCLITPPELLRQLTYIHKKCSNEPVGPSIAALTSEERTRWAKAREYLISLDPENLTLLEKIQTSLFVYSIEDSSPHATPEEYSQVFEMLLGGDPSVRWGDKSYNLISFANGIFGCCCDHAPYDAMVMVNIAHYVDERVLETEGRWKGSEKVRDIPLPEELVFTVDEKILNDVSQAKAQHLKAASDLQIAASTFTSFGKKLTKEEALHPDTFIQLALQLAYYRLHGRPGCCYETAMTRYFYHGRTETVRSCTVEAVRWCQSMQDPSASLLERQQKMLEAFAKHNKMMKDCSHGKGFDRHLLGLLLIAKEEGLPVPELFEDPLFSRSGGGGNFVLSTSLVGYLRVQGVVVPMVHNGYGFFYHIRDDRFVVACSSWRSCPETDAEKLVQMIFHAFHDMIQLMNTAHL | soluble
QTMGGDDVKVVQYNQEKLVQTRMSVADNGWIYVMTHSGYDTGNSNVKIFRSKDQGATYQKLRDWDPSDDYQFQDFDIVVTGKNESDIKIWSVELMNKPGGYKSRVAVFSRDANAQNAKLVYKEDFSNVQLYDVDIASNYRSPSSLNNGGNPFALAFAYTGFNNTHKISFVDYVFSLNGGQNFNKNLLFSQDGEKKIDKVDLSLGSTSESMGHNAWPLMGVVFEMNKQGGKSDIGFLSNFVDNDPEFQWSGPIKVSESDMSFSPKIQMLLDEDNNTINGESCHNFMITYSDYDSEYSDWDIRYVYPKKSFKYEKGKTPTMDDLVEAFLTASYQSETNSGLGYDKNANHYLITYAKKEENGTNTLKYRWANYDKIHNKDLWSDTFTYTSSANALYTPQVDINPTKGLVCWSWVEYLPGKRIVWSDTQWTHANGVEDIVMQEGSMKLYPNPAQE | not soluble
MDVVKEIMAAIKQYETIIIHRHQRPDPDAIGSQVGLAELLRASFPEKNIYQVGGPVEGLEFLAEMDVITDDVYRGALVIVTDTANAPRISDARFSLGDQLIKIDHHPNDEPYGDLVWVNTNASSCSEIIVDFWQQHLAELTMTDNAARLLYAGIVGDTGRFLYPSTSAHTLAVAAQLRTFNFNAADLNRELDQMPLKVAKLAGYIYQNLEIDANGAARVVLPQSILNSYDIVDSETAAIVSMPGKIEDVLSWAIFVEQPEGYYRVRLRSKGPIINTIAKKHHGGGHPLASGANARDAAEIEVIYQEIQAACQEWAQK | not soluble
MSRFAPATPLLLSLLLTSCSPAQGVRVERITGGGMLYTVATVDPARDQLTLHWLNPATGKPYSSFAQLGSRLGKQGKKLLFATNSGIYMPGPKPLGLHVEGGKTLVGLNNAGKGGGNFALLPNGVFWLRGKKAGVTETQAYRKLGLAPDYATQSGPLLVANGKLHPDFNKSGTSFKVRSGVGVCGGGKVRFAISAGPVNFYSFATFFRDTLGCPDALYLDGSISAYATPDTDTQFTEFAGIWAVTARLEHHHHHH | soluble
MNMVGHSYGNIAIVYYMLQHGSDTSLPKLVKQVDIAGHFNGIIGMDEPEENSLDGEGKPTSMTGSYEELLSLGDNYPQGQVEVLNIYGNTGKESDERVTNLSSQSLAYLLKGHVKSYQEKKITGLNGQHSKLHETTLVDKPLNAFLWGK | not soluble
MMQYMLLFSRQGKLRLQKWYTAYPDKQKKKICRELITQILARKPKMCAFLEYKDLKVVYKRYASLYFCCAIEQNDNELITLEVIHRYVELLDKYFGSVCELDIIFNFEKAYFILDEFLLAGEIQETSKKQVLKAIAAQDLIQEEETPQGFFEDHGLG | not soluble
MDLSVTHMDDLKTVMEDWKNELLVYKFALDALDTKFSIISQEYNLIHGHNPIEHTKSRVKSFESIVNKLMRKGCEITTKEMKEHIHDIAGVRIICSFISDIYNVVNVLKQHEDLRIVKVKDYIQTPKPNGYRSLHLIIEMPVNLTNRVEYVKAEIQIRTIAMDFWASLEHKIYYKLNNDVPKQLTDELKEAAEIAHYLDEKMLGIKKEVD | not soluble
MSLKPEKPSDTELVFISNAETIRDYLLRLSVDELKLLAKYILQNVYIVFVQTDDFASSFRLFNVLNSRGLPLSNADLLKNALFESASTHNKKSEQIESAWSQIEDMVGVRRLDKFLTLHKLSEKKDRDRVLQKGFEAFIENLQQQFDGDAIAMSLMLVNSAKNYTKILENDFEHPSIRRKIASLSNLGVDEWIPPVMAFMNRMARTEDFNLDDFSQFITAFEKVYMHGWLKKQIKSQREMVCYSALVAINNDMPFDSVINQINQHADNSGFIAALDEDLYEPRPNQVNLIKAILLRLDMEQQDESVIKTYTGRITIEHILPQALVNEYWINRFQPQEHVYWLHKIGNLTLISGSKNSEAQHYDFIKKKSIYEKLNSKSSFDLTKDVCNSSEWGLAELKMRHEKMKTQLKKLWLVEGHHHHHH | not soluble
MGSDKIHHHHHHMGNPRAFLTIHRQEAGYRPVHERIDDFSEVEQTLNSGDRRTQASRCMDCGVPFCHWACPLGNKQPEWQDLLYKGRYKEAYHVLEQTDDFPEFTGRVCPALCEKSCVLKLSCDEPVTIRENEAAIVEAAFREGYVQPIQPVRNGKKVAVIGSGPAGLTVANQLNRKGYEVTVFEKDELPGGLLRFGIPNFKLGKHIIDRRIRIMEQEGILFRVNTMVGKEILAKDVVKDFDAVCVAIGAEVPRDLSIEGRHLRGVHFALELLSQQNRILEGIPIPPKSQINCKGKKVLVIGGGDTGSDCVGTANRHGAACVTQIEIMPQPPVGQNPATPWPMYPQVLKTSSSHEEGCIRRWNLASNRFIGEKNNLIGVEVEEVEWVPSPDGGRPQMRQTGKKEIIEADLVFLAMGFLHPVQEGLIKELRLATDNRNNIAVDNAGYTANSNLFACGDAVSGASLVVKAMASGRNVARSIDRFLQTN | not soluble
MGSDKIHHHHHHMSLKTSDVKFKDRIQTQIHDPIMRKAVANAQERIGANRQKMVDELGHWEAWRDHAAQIREHVLNNLDAYLYQLSEKVTANGGQVYFAKTKEDATRYILQVAQANHAKKVVKAKSMVTEEIGMNHVLQQAGIEVIETDLGEYILQLDQDPPSHVVVPAIHKDRYQIRKVLHEKLGYDGPETPEAMTLFIRKKIREDFLSAEVGVTGCNFAVAETGSVCLVTNEGNARMCTTLPKTHIAVMGMERIAPTFEEVDVLITMLARSAVGARLTGYNTWLTGPREAGHVDGPQEFHLVIVDNGRSQILGSAFRDILRCIRCGACINTCPAYRHIGGHGYGSIYPGPIGAVISPLLGGYQDFKELPYACSLCTACDTVCPVHIPLSSLILKHRRVMAESGITPKAEQRFTKLFSYVNSHPMLWKVGMIAGAHAAGWFIKNGKTRIEMGAIGEWTEARDLPDADGESFRSWFKKHQARGKK | not soluble
MAYNKEEKIKSLNRMQYEVTQNNGTEPPFQNEYWDHKEEGLYVDIVSGKPLFTSKDKFDSQCGWPSFTKPIEEEVEEKLDTSHGMIRTEVRSRTADSHLGHVFNDGPGPNGLRYCINSAALRFVPKHKLKEEGYESYLHLFNK | not soluble
MGSDKIHHHHHHMSMDKELITAQALAEALHLSVETIWRYTREKKIPCIELGNKQYRYKKDDVIKALSNGSIQESASSYETQEPRKLTYQDYLLLPEEPGYHFEILDGMLIKEPAPNVLHQRVSRRLQRILEDYFWKVDPKGEVFDAPLDVTLHDVNVVQPDLLYVASEQEVIVKDTRIDGPPMLVVEIMSPSTSRKDRLQKRRIYQEARVEHYWLVNPQEKMLECFAWRDGVYALVAGGMEEELVEHPDFPGLSIALRALWNREI | not soluble
MSDSCDGVECGPGKACRMLGGRPRCECAPDCSGLPARLQVCGSDGATYRDECELRAARCRGHPDLSVMYRGRCRK | soluble
